Reference: patent publication US20230140397A1 (JIANGSU HENGRUI PHARMACEUTICALS, published 2023)

B1: Antibody PM (intact full-length anti-PSMA antibody PM, variable regions of AB-PG1-XG1-006) (antibody, V domains shown)
VH: QVQLVESGGGVVQPGRSLRLSCAASGFAFSRYGMHWVRQAPGKGLEWVAVIWYDGSNKYYADSVKGRFTISRDNSKNTQYLQMNSLRAEDTAVYYCARGGDFLYYYYYGMDVWGQGTTVTVSS
VL: DIQMTQSPSSLSASVGDRVTITCRASQGISNYLAWYQQKTGKVPKFLIYEASTLQSGVPSRFSGGGSGTDFTLTISSLQPEDVATYYCQNYNSAPFTFGPGTKVDIKR
notes: Full-length IgG1/kappa (VH-CH1-Fc/VK-CL), expressed in HEK293E cells; also called AB-PG1-XG1-006 (variable regions)
B2: ADC-10 (exemplary product of the conjugate of formula PM-VcMMAE, n=3.92) (antibody, V domains shown)
VH: B1 VH
VL: B1 VL
modifications: VcMMAE coupled via a mercapto group on cysteine after TCEP reduction; positions not given; mean n=3.92 per antibody (CE-SDS); VcMMAE (CAS 646502-53-6) coupled via a mercapto group on cysteine after TCEP reduction; positions not given; mean n=3.92 per antibody (CE-SDS)
notes: also called positive ADC-10
B3: ADC-2 (exemplary product of the conjugate of formula PM-9-A, n=6.63) (antibody, V domains shown)
VH: B1 VH
VL: B1 VL
modifications: drug-linker compound 9-A coupled via a mercapto group on cysteine after TCEP reduction; positions not given; mean n=6.63 per antibody (UV-Vis); drug-linker compound 9-A (exatecan analog with linking unit) coupled via a mercapto group on cysteine after TCEP reduction; positions not given; mean n=6.63 per antibody (UV-Vis)
notes: also called PSMA ADC
B4: Lmab-9-A (control antibody-drug conjugate of labeuzumab with compound 9-A, n=7.07) (antibody, human IgG1, kappa, V domains shown)
VH: EVQLVESGGGVVQPGRSLRLSCSASGFDFTTYWMSWVRQAPGKGLEWIGEIHPDSSTINYAPSLKDRFTISRDNAKNTLFLQMDSLRPEDTGVYFCASLYFGFPWFAYWGQGTPVTVSS
VL: DIQLTQSPSSLSASVGDRVTITCKASQDVGTSVAWYQQKPGKAPKLLIYWTSTRHTGVPSRFSGSGSGTDFTFTISSLQPEDIATYYCQQYSLYRSFGQGTKVEIKR
modifications: drug-linker compound 9-A coupled to cysteine after TCEP reduction; positions not given; mean n=7.07 per antibody (UV-Vis)
notes: also called control ADC Lmab-9-A; ADCLmab-9-A

What was measured:
[1] = biological target: T1, prostate specific membrane antigen (PSMA) on prostate cancer cells (human, UniProt Q04609 1-750); assay: flow cytometry on MDA PCa 2b cells, FITC anti-human IgG secondary
T1 construct: whole, on cells; Printed expression order: MDA PCa 2b > LNCaP > 22Rv1; also called glutamate carboxypeptidase II (GCPII); FOLH1
Experimental: (§1) In this experiment, fluorescence signals of antibodies on the cell surface were detected, and the binding of the antibodies was evaluated according to the intensity of the fluorescence signals.
(§2) The cells were incubated with an FITC-labeled goat anti-human IgG (H+L) secondary antibody (Jackson Immuno Research, 109-095-003) at 4° C. for 30 min, and then excess antibodies were washed off. The fluorescence signals on the cell surface were read using BD CantoII. The results are shown in Table 2, FIG. 1A, FIG. 1B, FIG. 1C, FIG. 1D, and FIG. 1E.

[2] = biological target: T1, prostate specific membrane antigen …; assay: flow cytometry on 22Rv1 cells, FITC anti-human IgG secondary
Experimental: as §1, §2

[3] = biological target: T1, prostate specific membrane antigen …; assay: cell-based or functional assay
[4] = biological target: T1, prostate specific membrane antigen …; assay: flow cytometry on LNCaP cells, FITC anti-human IgG secondary
Experimental: as §1, §2

[5] = biological target: T1, prostate specific membrane antigen …; assay: flow cytometry on MDA PCa 2b cells (PSMA-expressing), FITC anti-human IgG detection

T1 sequence (Q04609 whole entry): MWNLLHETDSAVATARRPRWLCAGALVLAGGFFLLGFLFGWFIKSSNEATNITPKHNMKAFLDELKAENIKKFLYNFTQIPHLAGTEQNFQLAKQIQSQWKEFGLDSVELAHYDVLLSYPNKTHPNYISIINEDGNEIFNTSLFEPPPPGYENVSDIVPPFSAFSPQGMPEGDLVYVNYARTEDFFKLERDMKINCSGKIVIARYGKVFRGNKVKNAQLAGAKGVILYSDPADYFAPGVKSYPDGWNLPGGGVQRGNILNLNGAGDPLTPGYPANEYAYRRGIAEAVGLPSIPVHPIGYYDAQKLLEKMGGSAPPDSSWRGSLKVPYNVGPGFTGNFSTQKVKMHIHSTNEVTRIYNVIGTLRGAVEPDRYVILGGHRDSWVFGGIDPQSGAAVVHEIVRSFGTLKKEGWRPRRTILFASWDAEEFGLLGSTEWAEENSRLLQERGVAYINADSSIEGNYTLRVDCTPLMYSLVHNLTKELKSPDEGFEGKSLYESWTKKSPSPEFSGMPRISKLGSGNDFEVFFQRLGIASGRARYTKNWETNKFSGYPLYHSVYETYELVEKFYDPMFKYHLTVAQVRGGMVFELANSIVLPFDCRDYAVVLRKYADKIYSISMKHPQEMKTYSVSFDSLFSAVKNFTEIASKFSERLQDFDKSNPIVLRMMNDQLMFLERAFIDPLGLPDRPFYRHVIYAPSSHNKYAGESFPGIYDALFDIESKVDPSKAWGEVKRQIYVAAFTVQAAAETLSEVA

Binder	EC50 [1]	EC50 [2]	Endocytic activity of different cells to the antibodies (IC50, nM); DT3C-mediated cell killing, 22RV1 cells [3]	EC50 [4]	binding result [5]
B1	1080 pM	676 pM	0.0856 nM	1420 pM	–
B2	954 pM	689 pM	–	1580 pM	–
B3	718 pM	571 pM	–	938 pM	–
B4	–	–	–	–	no binding
